Experimental findings from publication PMC2871033 (Structure (London, England : 1993), 2010) are described below.

In experiment [1] the target is T1, Prp19, separately purified (analytical ultracentrifugation) (S. cerevisiae), P32523.
T1 chain: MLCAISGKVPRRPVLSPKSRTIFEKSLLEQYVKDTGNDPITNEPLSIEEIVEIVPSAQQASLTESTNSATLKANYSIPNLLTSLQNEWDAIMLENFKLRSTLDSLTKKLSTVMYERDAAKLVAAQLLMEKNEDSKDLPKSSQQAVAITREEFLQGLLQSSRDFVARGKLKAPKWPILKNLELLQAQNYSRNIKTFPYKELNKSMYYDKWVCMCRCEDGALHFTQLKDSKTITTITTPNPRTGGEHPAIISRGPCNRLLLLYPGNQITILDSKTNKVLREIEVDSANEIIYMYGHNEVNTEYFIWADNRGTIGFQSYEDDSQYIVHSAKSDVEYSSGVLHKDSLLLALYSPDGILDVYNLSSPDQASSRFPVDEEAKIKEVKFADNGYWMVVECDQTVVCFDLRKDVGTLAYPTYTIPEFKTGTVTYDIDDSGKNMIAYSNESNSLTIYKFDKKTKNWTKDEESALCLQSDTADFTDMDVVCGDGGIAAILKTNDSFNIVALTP
As to the kind of experiment: AUC. The note with it: remark: other sources report otherwise.

The target in experiment [2] is T2, Cwf8-Myc13 (S. pombe Prp19) (S. pombe, UniProt O14011 1-488).
T2 sequence (looked up): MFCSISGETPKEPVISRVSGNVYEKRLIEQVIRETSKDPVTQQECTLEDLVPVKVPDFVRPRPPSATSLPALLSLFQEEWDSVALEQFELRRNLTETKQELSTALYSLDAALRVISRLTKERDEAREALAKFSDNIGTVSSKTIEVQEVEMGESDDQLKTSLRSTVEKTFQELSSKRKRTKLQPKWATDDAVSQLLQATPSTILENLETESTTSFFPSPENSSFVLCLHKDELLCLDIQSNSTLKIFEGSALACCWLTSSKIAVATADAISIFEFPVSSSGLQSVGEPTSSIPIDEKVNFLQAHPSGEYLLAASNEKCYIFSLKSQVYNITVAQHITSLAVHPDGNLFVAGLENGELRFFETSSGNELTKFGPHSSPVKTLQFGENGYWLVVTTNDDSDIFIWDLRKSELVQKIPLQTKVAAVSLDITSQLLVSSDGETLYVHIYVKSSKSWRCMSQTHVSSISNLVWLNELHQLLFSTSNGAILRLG
As to the kind of experiment: co-IP.

B1: Prp19, separately purified (analytical ultracentrifugation), P32523 1-503 (natural protein)
chain: T1 chain
As for B1, the stoichiometry N (in general, a count of units in the complex or per binding partner) in experiment [1] amounted to 4.

B2: Cwf2-Myc13 (S. pombe Cwc2) (natural protein, UniProt P87126 1-388, looked up)
chain: MSENGLEQEVTVEEKNNDVTEKILVEGEKSKEYEETPRKVKIVKRKKQPARKQIETRPEYEMEPEQPGQVYNLWYNKWSGGMRQDPLKSQVKSETRCVISRDSGYTKADKNPGSFFCLYFARGMCSEGSKCEYLHRLPKDTDFFNANVDCFGREKHADYRDDMGGVGSFLRQNYTLYVGGITPTDDIEEIVSRHFAEWGDIERIRVLNSRGIAFITYLNEANAQFAKEAMAHQSLDHDECLNVRWATTDPNPASQARNQRRLEERAANAVKKLLPKQFLLDLEETKNGKSGNRKRKLELEFGLKGYVPSDDLLYADGANSVHNQLAANEFPNKSQSEEGSNDDHKSVTTTESQNKFVNSQILSDLQVAKQAVHTNQSALVSYYDSDED
As for B2, in experiment [2], the “stoichiometry N” value was 2 copies of Cwf2 per four copies of Cwf8.
